The supplement of paper PMC10567573

B1: NETO1 (parent)
chain: KTSLLDQLTNTSGTVIGVTSCIVI
B2: TRIM29 (parent)
chain: RKCPVHGKTMELFCQTDQTCICYL

Variants of: B1
Test: protein stability index of a GFP-peptide fusion (GPS, HEK-293T) (PSI 1-6); higher = more stable
Conditions: c terminus: a fixed tail appended
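Also: lentivirally expressed fusions sorted by FACS into six bins by GFP to DsRed ratio, PSI derived from sequencing read proportions per bin multiplied by bin number.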

Protein stability index, by site and new letter:
K1: S 3; F 3.08; E 3.07; L 2.67; H 2.11; W 3.48; M 3.4; Y 2.37; R 1.61; P 3.02; Q 2.81; I 2.82; G 2.6; N 2.53
T2: I 3.34; F 3.71; G 3.08; H 2.98; C 1.93; A 3.1; D 3.94; E 2.12

Variants of: B2
Test: as above
Conditions: c terminus: a fixed tail appended

Protein stability index, by site and new letter:
Q18: C 2.22; R 1.97; G 2.79; S 1.68; T 2.36; V 2.65; K 3.94; F 2.71; H 2.18; D 1.79; M 2.12; P 2.7; W 1.56; E 2.75; A 1.73; Y 1.42; N 1.82; L 2.11
I21: H 2.98; P 2.44; F 2.86; Q 3.36; V 1.92; Y 3.25; W 2.78; K 2.02; M 2.36; N 2.52; A 2.77; T 3; G 3.1; E 4.47; S 1.91; L 1.73; R 1.88; D 4.33; C 3.49
D17: E 3.12; H 1.89; Q 1.66; C 2.08; S 1.49; A 2.19; R 2.8; I 1.79; Y 2.92; T 1.76; P 2.04; K 1.52; G 2.73; F 1.49; L 3.97; N 1.7; M 1.93
C20: Q 3.07; R 2.38; D 3.16; K 3.17; Y 2.78; I 1.25; N 3.24; H 3.04; W 2.42; P 1.83; G 3.31; S 2.56; A 3.08; V 1.27; M 3.2; L 2.28
C22: Y 1.45; R 1.99; L 3.09; H 2.01; T 2.16; S 2.46; P 2.27; A 1.87; M 2.37; I 2.81; N 1.67; D 2.38; V 2.9; G 1.99; K 2.04; E 2.58; Q 2.02; F 1.31; W 1.23
T19: D 1.6; Q 2.32; A 3.62; G 2.42; V 1.31; M 2.51; L 1.59; F 1.88; H 2.95; P 2.35; K 2.44; C 2.66; Y 1.89; I 3.16; N 2.16; E 2.4; W 2.47; S 2.63
L24: G 5.15; Q 5.07; M 4.34; S 5.39; V 4.34; K 4.82; H 4.59; C 4.74; I 4.21; W 4.47; A 5.02; Y 3.86; N 4.57; T 5.36; F 4.64; P 5.26; E 4.75; D 5.58; R 4.89
Y23: A 4.28; M 3.38; F 1.65; V 2.66; H 4.24; L 2.58; C 4.73; W 1.59; P 5.16; N 4.91; G 4.98; D 5.55; K 4.52; I 2.73; Q 4.28; S 4.29; E 5.25; T 4.17; R 3.95
